The values that follow come from the supplement of paper PMC12042874.

± gives the uncertainty stated by the source.

A short description of this data set: amyloid nucleation score (Sup35N fusion, yeast selection) (log enrichment); library NNK3; higher = more nucleation; inactive = no reads after selection. In outline:
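After 24 hours of induction with 100 μM copper sulfate, psi-negative yeast expressing peptides of 20 random codons fused to Sup35N were grown for 7 days at 30°C on medium lacking adenine and uracil. Input and output plasmid inserts were sequenced with Illumina, and sequences with under 100 input reads were discarded. Scores for nucleation are the DiMSum log enrichment of output over input reads, centred on the mode score of non-aggregating sequences.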
On to RRYIRSVNCKQWDYKFLMYS, for which the amyloid nucleation score entry was “inactive”.
The result for RSALRVM reads “inactive”; that for RSANLICLSPLSIIIRDKTL, “inactive”; that for RSAPCC, “inactive”.
With RSAVISTLRYSW the figure was -0.289 ± 0.41.
With RSDLCFC the entry was “inactive”; with RSDSWLIYSSPINMM, “inactive”.
With RSFVVNYWGFSDMLHFCRLC, the amyloid nucleation score result was “inactive”.
With RSGFAKMNAILLYFASFLL the entry was “inactive”; with RSGSLIGAVYRNMVVLNRMG, “inactive”.
With RSHGVLNLILCSPFLSDTGQ the figure was 2.78 ± 0.074; with RSKEMNVKASKNSMVHVSEV, “inactive”; with RSLCQQYQRFSSLRKVIGLS, “inactive”.
The result for RSLDD reads “inactive”.
As for RSLTLW, the amyloid nucleation score entry was “inactive”.
With RSLYWIWWDDSKSNE the entry was “inactive”.
With RSMIWRKCF the entry was “inactive”.
The result for RSMYR reads “inactive”; that for RSNICQFLKDFYKRCRKLF, “inactive”; that for RSNVVAQMYQKMLLSRYCTI, 0.354 ± 0.27.
Turning to RSNYRGYFK, the amyloid nucleation score is -0.498 ± 1.4.
The result for RSPRFLRELVLGCSNCWFCG reads “inactive”; that for RSQRKTFHWKFWRPSCSDQW, 0.868 ± 0.12; that for RSQSVQKIEATLSLLIGAPK, “inactive”.
With RSTAPGTGSDIPFEDSLRQM the entry was “inactive”.
As for RSTDTFWACCSDKTLSLWSA, the amyloid nucleation score entry is “inactive”.
With RSTTTMEYWFSCAVYSPKSV the figure was 0.682 ± 0.12; with RSTWFSFFRRTAHWKKALRP, “inactive”; with RSVSDYSSNCRAHCLVDDDT, “inactive”.
The result for RSVVVLT reads “inactive”.
For RTAMVVDSYAKSFMSQASVL, the amyloid nucleation score entry was “inactive”.
Regarding RTECYVYKYDALDSRLGYCD, the amyloid nucleation score is -0.18 ± 0.62.
With RTFPLTLRSSHSPFKPLMFL the entry was “inactive”; with RTHRRKSDTVMLES, “inactive”; with RTLCRLWTLCCRCRSYALFR, “inactive”.
With RTMLTQFPCYWVSIHSVLVS the entry was “inactive”; with RTNILVGRIR, “inactive”; with RTSVDQLEMKMRFSMSFGWL, 0.449 ± 0.64.
With RVEIRIIS the entry was “inactive”.
RVFYIVDMVFIFKRCSIRES: the amyloid nucleation score entry was “inactive”.
The result for RVGTMLHGDWAYCHR reads “inactive”; that for RVKSKDANSGGSMVCASRVL, “inactive”; that for RVLQKAPRWAMGFARW, “inactive”.
The result for RVLYSFQCAFLMDKETSSGR reads “inactive”; that for RVMFMASVWSNCGLWSSGTS, 1.39 ± 0.15; that for RVRFLCIMFWDH, -0.038 ± 0.66.
The result for RVRSDGANGWGVVMNACWMS reads “inactive”.
For RVSNGPIIYRRMHAAGDNLT, the amyloid nucleation score result is “inactive”.
The result for RVSYKICKERKF reads “inactive”.
For the substance RVYFKTGFPMVLLSKKRGSE, the amyloid nucleation score worked out at 0.952 ± 0.19.
For the substance RVYVLLLNGQPFCRKYRL, the amyloid nucleation score result is “inactive”.
With RWDVEIPNLQICKRT the entry was “inactive”; with RWFLSWWIYFEVKPNDNSFF, “inactive”; with RWLLMYLLLRSTATN, “inactive”.
The result for RWPLMMTFSATIVGYTVVWA reads “inactive”.
With RWRFRRWVS the entry was “inactive”.
For RWSLYLGRSRMKLRATVHSF, the amyloid nucleation score entry was “inactive”.
With RWSTLIVTCSAGPSDFVCDG the entry was “inactive”; with RWWKKTIQIFKCFVKHLEWG, “inactive”; with RYAHRSKRNTSWHVYMFKVV, “inactive”.
The result for RYCVS reads “inactive”.
The result for RYLRKEDDWFIDRAVD reads “inactive”; that for RYMHGYCILET, “inactive”; that for RYNGTGIKYWKTY, “inactive”.
Turning to RYWWNYWLLPRWFFVQLGSC, the amyloid nucleation score result is “inactive”.
With RYYIMILLS the entry was “inactive”; with SACSYYTMHHIFGAMFHN, “inactive”.
The result for SAFGTQGYCKSSVFPEASPR reads “inactive”.
With SAFNEFFF the entry was “inactive”; with SAFTFPTLWIFTNPTVHLLF, “inactive”.
Take SAGAQSHSIYRAAVLSACLY: the amyloid nucleation score result is “inactive”.
The result for SAGWHTYRIKHPVSFVGKTI reads “inactive”; that for SAIPKGKATITFPPLKSFVR, 1.02 ± 0.13; that for SALFMLPYALTRMVYANLLQ, -0.004 ± 0.75.
With SARSVIYYVPGLSTWSVTS the entry was “inactive”; with SASVGFGHSSWNPIIGMIRI, “inactive”; with SAVYIDA, “inactive”.
With SAVYMVSGIGNNSHTSAFIR the figure was 0.614 ± 0.17.
For the substance SCAKQLCYHGFLMGH, the amyloid nucleation score result was “inactive”.
With SCALDLIDLQKGVTSHKEFI the entry was “inactive”.
The result for SCFISSMYFASWKFRISNGV reads “inactive”.
For SCGMERRLIIYSSSHNNILY, the amyloid nucleation score was 0.178 ± 0.88.
The result for SCGTMTEIGVGRVLRFFVIL reads “inactive”; that for SCIFPILGVFADDFTMTFTW, “inactive”; that for SCLMLSIYSSQTWKSLCGLK, 0.95 ± 0.12.
For the substance SCMGFVRQANIVG, the amyloid nucleation score entry is “inactive”.
The result for SCNQKMGHLNFCNFFWTLTV reads “inactive”; that for SCRWMTMCAINSP, 0.726 ± 0.2; that for SCSCESCYKGVAEYDLVKDV, 1.32 ± 0.16.
The result for SCSIVDWSLMIVTYLCWLTN reads “inactive”.
With SCVDLPWQMRLRHRKCQFDG the entry was “inactive”; with SCYCN, “inactive”.
SDDKGVWLIMAGLCGIWSMY came in with an amyloid nucleation score of 2.33 ± 0.082.
The result for SDEFGDHEGCMLAFRASAVW reads “inactive”; that for SDEYTVTFHPSTPGKVSERD, “inactive”; that for SDGIYV, “inactive”.
With SDGKQQLFKENS the entry was “inactive”; with SDMCMVLFLLTVYFVMSGRC, 0.133 ± 0.67.
For the substance SDNELMIAFESG, the amyloid nucleation score entry was “inactive”.
As to SDRAHGQFFRPGERLPSNPW, the amyloid nucleation score was -0.069 ± 0.52.
With SDRLS, the amyloid nucleation score entry is “inactive”.
Regarding SDVKSS, the amyloid nucleation score entry is “inactive”.
With SERWGIESHNRNSNMRKTGW the entry was “inactive”; with SEYYCYICLMVSIGFSANLL, “inactive”.
On to SFCECFQSSKSCKIWTVWIV, for which the amyloid nucleation score result is “inactive”.
Consider SFCFFRVTLSCTC, for which the amyloid nucleation score entry is “inactive”.
Consider SFCMCGGLLVRSYRSFRFVR, for which the amyloid nucleation score entry was “inactive”.
Turning to SFDQNRRVVIFVSPHSEGMR, the amyloid nucleation score entry was “inactive”.
The result for SFEPRSLMYNTNRGI reads “inactive”; that for SFFCN, “inactive”.
With SFFTWYTSFSKDDLWSGLTV the entry was “inactive”; with SFGIGSI, “inactive”.
SFHLQVLPRSGVLACISTGF: the amyloid nucleation score entry was “inactive”.
The result for SFKKPRPNYLPVFLVYLCNS reads “inactive”; that for SFLAYYMFYM, “inactive”; that for SFLIDPTHGLYSLRFFIFCW, “inactive”.
As for SFLPTV, the amyloid nucleation score came to 0.93 ± 0.23.
SFLSKGRSRSSFQWYQGHRA: the amyloid nucleation score was -0.302 ± 1.1.
The result for SFLTKSQKTNCGSLKEMCVG reads “inactive”.
For the substance SFMITFLIMRHVASFA, the amyloid nucleation score result is “inactive”.
The result for SFNCPNAWSVYLL reads “inactive”; that for SFNHCM, “inactive”.
With SFNVDAYMNINCW the figure was 1.02 ± 0.21; with SFPWFDTYSLDVSWHISWRS, “inactive”; with SFRDPHLTHSSVDCRTVYHI, “inactive”.
With SFSELVSAASKTQTVCRRKC the entry was “inactive”; with SFSFSKSNVSERDLCSTCTV, “inactive”.
For the substance SFSKLVFR, the amyloid nucleation score entry is “inactive”.
The result for SFSSLQFVNIATPHY reads 0.42 ± 0.2; that for SFSVTMPMPIYTTLNGPLTN, “inactive”.
With SFSYDTRVDVSAILQSQNSL the entry was “inactive”; with SFTMMRSFSA, “inactive”.
